Legend:
Details in all cases: protein: recombinant; tags: GST; label: fluorescein (RNA labelling mix)
SXM (GST-SXL Drosophila) [1] = biological target: T1, SXM (GST-SXL Drosophila) (Drosophila melanogaster, UniProt P19339 1-354); test: EMSA; apparent Kd, Hill fit; error 95% CI; 20 mM Hepes pH 8.0, 0.1 M KCl, 0.5 mM EDTA, 1 mM DTT, 0.05% NP40, 20% glycerol, 3 µg yeast tRNA; 5 min on ice, then 10 min at room temperature with RNA; 5% native PAGE, 0.25x TBE
T1 sequence: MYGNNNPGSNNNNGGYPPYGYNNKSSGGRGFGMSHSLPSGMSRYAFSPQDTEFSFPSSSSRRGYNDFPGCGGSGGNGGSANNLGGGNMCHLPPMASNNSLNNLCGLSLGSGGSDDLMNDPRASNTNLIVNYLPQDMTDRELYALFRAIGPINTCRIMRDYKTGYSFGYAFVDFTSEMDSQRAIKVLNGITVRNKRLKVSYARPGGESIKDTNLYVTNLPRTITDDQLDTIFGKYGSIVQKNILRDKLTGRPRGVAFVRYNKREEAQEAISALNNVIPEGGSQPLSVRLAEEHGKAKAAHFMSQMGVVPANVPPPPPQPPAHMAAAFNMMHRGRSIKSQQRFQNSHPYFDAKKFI

SXS (GST-SXL Sciara) = biological target: T2, SXS (GST-SXL Sciara) (Sciara ocellaris, UniProt Q86QM9 1-287); test: EMSA; Hill n=1; error 95% CI; 20 mM Hepes pH 8.0, 0.1 M KCl, 0.5 mM EDTA, 1 mM DTT, 0.05% NP40, 20% glycerol, 3 µg yeast tRNA; 5 min on ice, then 10 min at room temperature with RNA; 5% native PAGE, 0.25x TBE
T2 sequence: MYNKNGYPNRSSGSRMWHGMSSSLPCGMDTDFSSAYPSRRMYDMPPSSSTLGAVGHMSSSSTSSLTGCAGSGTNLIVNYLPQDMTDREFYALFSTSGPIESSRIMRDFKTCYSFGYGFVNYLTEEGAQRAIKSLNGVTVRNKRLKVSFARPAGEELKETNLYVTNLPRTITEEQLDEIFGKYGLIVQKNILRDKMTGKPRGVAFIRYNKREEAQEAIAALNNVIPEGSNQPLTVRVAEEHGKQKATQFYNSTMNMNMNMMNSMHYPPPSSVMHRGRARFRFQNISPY

SXM (GST-SXL Drosophila) [2] = biological target: T1, SXM (GST-SXL Drosophila); test: EMSA; cooperative, Hill n>2; error 95% CI; 20 mM Hepes pH 8.0, 0.1 M KCl, 0.5 mM EDTA, 1 mM DTT, 0.05% NP40, 20% glycerol, 3 µg yeast tRNA; 5 min on ice, then 10 min at room temperature with RNA; 5% native PAGE, 0.25x TBE

Row | Binder | Kd (SXM (GST-SXL Drosophila) [1]) | Kd (SXS (GST-SXL Sciara)) | Kd (SXM (GST-SXL Drosophila) [2])
1 | ACAUAUUUUUUUUCACAGC (ssRNA) [single poly(U) SXL site] | 150 ± 20 µM |  | 
2 | CAUGAUUAUUUUUUUUUAUUUUUUUUCGGUGA (ssRNA) [double poly(U) SXL site] |  | 300 ± 200 nM | 500 ± 300 nM

— PMC3677924, “Biochemical and Functional Analysis of Drosophila-Sciara Chimeric Sex-Lethal Proteins”
